Ten molecules from PMC5389548 can be followed below.

This series has as its target thrombin (human, UniProt P00734;P00734 328-363;364-622). Kind of series: microarray sandwich fluorescence.
Consider GGTTGGTGTGGTTGG (structured_DNA, 2'F-ANA at T3, G8, T12; full pattern lost in text) [sequence 1], for which the Kd turned out to be 28 ± 1.6 nM.

In turn, GGTTGGTGTGGTTGG (structured_DNA, 2'F-ANA at T3, G8, T12; full pattern lost in text) [sequence 2] returned a Kd of 28 ± 1.2 nM.

Take GGTTGGTGTGGTTGG (structured_DNA, 2'F-ANA, positions lost in text) [sequence 4]: binding was characterised by a dissociation constant (Kd) of 41 ± 3.7 nM.

For GGTTGGTGTGGTTGG (structured_DNA, 2'F-ANA, positions lost in text) [sequence 3], binding was characterised by a dissociation constant (Kd) of 39 ± 10 nM.

Regarding GGTTGGTGTGGTTGG (structured_DNA, 2'F-araT, positions lost in text) [sequence 15], the Kd came to 85 ± 21 nM.

Consider GGTTGGTGTGGTTGG (structured_DNA, 2'F-araT, positions lost in text) [sequence 16], for which the affinity, expressed as Kd, was 117 ± 44 nM.

Molecule GGTTGGTGTGGTTGG (structured_DNA, ten 2'F-ANA, positions lost in text) [sequence 11] had a Kd of 53 ± 16 nM.

In the case of GGTTGGTGTGGTTGG (structured_DNA, ten 2'F-ANA, positions lost in text) [sequence 10], binding was characterised by a dissociation constant (Kd) of 45 ± 14 nM.

GGTTGGTGTGGTTGG (structured_DNA) [TBA1 control] had a Kd of 93 ± 23 nM.

GGTTGGTGTGGTTGG (structured_DNA, eight 2'F-ANA, positions lost in text) [sequence 6] registered a Kd of 29 ± 2.7 nM.
